Test results reported in the domain aggregation screens of Martell et al. (2025).

Assay: soluble fraction after stress (log2 fold change); higher = more stays soluble; pooled small domains, quantitative proteomics
Details: stress: pH 4
Outline: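 Custom libraries of small protein domains were pooled and measured with high-throughput quantitative proteomics after pH 4 stress. The read-out is the fold change in the amount of each domain that stays soluble after the acid stress, taken as a measure of aggregation propensity. Fold changes are on a log2 scale, and higher values mean more of the domain stayed soluble.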

Row | Sequence | soluble fraction (log2)
1 | HMIANNFDEFVEKVSEAERKALNMPAGQEMTQKLLEMKLAANPNLTPEEWQRTKSEFMTFLFAVFVRE | -1.02
2 | HMIAVLEEGSHFRAVNDVTGKPFGPEMVIKNGQVTAVGKTISTKPKNLLGKKEGTKFVISGKQYVIKDI | -0.103
3 | HMIDAHTALLAKRLEAKGMLPLTDKSSAEEIYAEFGISKKAFKKALGALYKERLVRIGEDGVVWI | 0.0608
4 | HMIDFIGLEAKLLSTISGEKMGNAEVIVDGNVMNIYVKSLDTSEIKFRENVLIIKQSDDKNYYLVAKP | -1.01
5 | HMIDIDTILKKYKPGRRDELIPLMQEIQEVYGHLSEEAVVKIGTYVGLSTTKIYGLATFYDQFRF | -0.874
6 | HMIDLGKSRTWHSENGRAIEARVINISEEQQTVEMQRVDGLKFELSWNQLSKADQTLLAEAAKKTALVA | 0.276
7 | HMIDLPDIDIDFAKRTGVLEHITHTPARLETGKQHNTGVYFTDIPRGVDGLATMDHKRAEQLGYFKLDML | -0.172
8 | HMIDNKIIRSLRQKRNMTLEELAKKANISVSYLSEIELGKKQPSLETINKLSQALNISREGLI | 0.22
9 | HMIDPHGSLTLDLRPRDARVEIIDSNKTYKPGVRLPMGEYAIAVSRRGYISETKRINIEYGDNRERVAL | -0.00328
10 | HMIDSDENERIKELIKALISETLKSRGVSPEVISDIKERVDRLHNEELPRFAAELKELISRN | -0.209
11 | HMIDSEEVMETIQDLGYSPVFDVKEKFYKIKEEQIGKITLEVHIILRYGMVDLVWIVRENGELLLG | -0.454
12 | HMIDTLEYIISEESKGLRADQAITMVNGEFSRSLIQKWIKKGSILVNGKKIKPRDILNLNDKVTINPEEN | -0.633
13 | HMIEDMQQWIRQIREIVSNRLDLTRNISDDEIREVISDIVMEQSRQQYMSLNEKKTLMEGVFNSMR | -0.977
14 | HMIEEIETQFLFDFGLIGHPNSAKIREKLSEALGIGYVNGKQLQKRLMMFGITKQQVVDVLTD | -2.3
15 | HMIEMAGGYRKGDRVELHSLKGAAEHNGKQGTVVGPQGERVKVLLDDSDSKTLALKVTNLTKLESA | 0.0709
16 | HMIEMGNRIRTLRKRRVGSQSEFAEKLDVSVVTISRIENGMTKIDAELLIKMSEVLQVPVNIILGM | -1.7
17 | HMIENPGQTFERIAGKITRTLRTGPLRIQQLDLLFSESGEQVMDVLRAMAENGEILIKDDTIQWNGHN | -0.387
18 | HMIERKLRKKEHFIASVGEKVKIKNFATETYKGELISADNEKVVVETEFGKEEITYDNILAAATYFE | -1.01
19 | HMIFNENLKSAREKKGLSQKEVAEAIGVAKSTYSLYESGNREPNVQTIKRIADVLNVSADVLLGL | 0.332
20 | HMIGELVVEDLAAASEINVDTIRYYQRLGLLEPPRRRGRRAVYDHTHLERLAEIRRLAGAGFTLAQIGRLK | -1.23
21 | HMIGILSDREAEILALLDEGLTNKAIGRRLNLAEPTVKFHLKNLYAKLGVGRRQLAVNVAKGSGLLNSD | -0.167
22 | HMIGIRLKELVLKNQSAWVGLRVSELDISRKTMIVMIRRGDKMLIPNGSTILRSGDVLLLYTR | -0.354
23 | HMIGITTANLNVRTGTDTNYTSIAILPKGTKVNILEENVKPGWYKIQFDEIYAFVSSKYIKIQS | 0.243
24 | HMIGMDMQELIGRYKGDPDEMGKIELAAMSMLKLSEDMSSDHVLQKSKLRQDGLWLLKYVQE | -1.03
25 | HMIHEQSLHKIRNFIGSLPESLRTAFTLREQDGLSYEEIGKITNTPIGTVRSRIYRARESILDHINQE | -0.2

Row | Sequence | soluble fraction (log2)
26 | HMIHIGAQEALGEFQDEEGNLTASKKEVVAALVKKSKEVSFPTSYEYEVAARMAADEYNDAGQRMA | -0.079
27 | HMIHKTDAINLGQRLLKSSLKEFDVSLKDIPNKTLMYILSEYKFNSLDDLYREIGLGNVIPKLVALRMAP | -0.436
28 | HMIHTYVETRKVGNNDGLIRVDNKYYRVPQHLVGMKVQIQIDEATISVLQGGVMVATLDKTADVFNPQA | -1.74
29 | HMIIDPQIRTLWTSQIIDILKSNPKRSIRSILELYPSNKESWVLIILQELIGEEKIIRDLDYLYFNK | -1.26
30 | HMIIIMKMGADESQVQETIKRIKDLGFNTHLSKGENRTIIGVIGDVSSIDESDVERLRATPYIAEVVRVS | 0.417
31 | HMIIIPKKDYDVSQLDNLVSWLKDRGLEVHISRGENLTVIGLIGDTSKIDIDLIRSLDVVEEVKRIQ | -1.31
32 | HMIIVMASSKKEDVAHVVHKIEELGYKAHVIVGVERTVVAAVGDERGKERLISLEALPHVEKVFPILK | -0.167
33 | HMIKEVEYSQFLQMTDQGEVGKVEINEQENSILFTDKAEKNIYKTGMVEDAELSMRLYEAGIPFSGQI | -2.29
34 | HMIKEYEVLNYVTYEYDEIKKKLEEDFGIIVLMKEAYSDETPAGIIMDQDVEQGRIFKEGATNTITFTVS | -1.2
35 | HMIKLSEAEWKVMKLLWEESPKTMMQITNLLKETTGWTKHTVMTFLKRMEEKKAIHYEEGGRAKLYYP | -0.0902
36 | HMIKVASVDGASDELAHEIREIMPLDFPVSYFDLDIKYLHKVLNDIPAVESAAIKVTVSGVLQIDISER | 0.248
37 | HMILALAISSEEDDARIYATYADRLREAYPASARVFEGMVDEEHEHRRRLIDLFQRRFGDTIPLVRREHV | -0.836
38 | HMILNPADEEKMNLINFELQQRGLEINDKEMQYIFTHHSRDLNSLLNLAEKLDEISHQEKKSISINLIKKI | -0.158
39 | HMILNWSEYTRSEIIELARDLSPDKYMIIDDINTYSKMKLLPSQAFIAEMFGSLRQFQKEAWGRE | -1.27
40 | HMILPKFNQLLGQMGENIKLARKRRKLTAVQVSERAGIARSTLYLIEKGDASVSLGAYFNVLRVLG | -0.214
41 | HMIMEVDYGTFMKMTEENAIGRVQMDSTEIIFTDKENTQVYSTGIMYDPDLTQRLYDAGAVFA | -1.58
42 | HMIMGTIEKRGPFSFRIGVQVRLPDGSWEWIRDTIHVSPDLSARAARKQAEMALARLEADVYEGKRKPD | -0.0141
43 | HMIMLDRILKIMDYNKFTPSEFADVLEIDRSRLSHILNGRNKPSLEIVMKILEKFPEISSDWLLFGSGNML | -2.01
44 | HMIMNEYEELRDRYLIGQIWKIGDLIEAKGIEGKIIQRGTNYVTFNDNNGKVHKAWLHEIKYEQ | -0.559
45 | HMIMNKEIPVVADEFVEKEFGTGAVKLTPAHDPNDYESGERHGLEVVEVFDETGKMNDLVPEYEG | -0.0198
46 | HMIMTGSIQEKNGKYYTVLNIKDKNGKYKKKWQTTGLPVKGNKRKAEQILRRRIAEYEANQL | ≥ 0.43
47 | HMIMTHSALLEKDGFDIVKVHFERPNDDGFDFLDMTLPGEIVYKSFGFSEDEILKLKRYAKNNSSLIWDF | -1.87
48 | HMINEDMTQSDRMELWGRLIDVVEDWLAEKGITEEDIPNEEREGVEDAAIIFGDDYDYLADRFSEVIGISR | -1.99
49 | HMINFKVKNVQDVGSRLDKFLVTNIPEFSRSKIQKHIKNGKVMVNGLLKKTGYKLEINDEINILNN | 0.198
50 | HMINLDYILELIFEKNNKTKDKTALIEEIRGVIRASVGNRAKESLIVDFINDTDLDTITDKASIIESFFEY | -2.64
